Data reported in PMC4474781 (Environmental microbiology, 2015).

Molecular target: T1, oxidoreductase FAD/NAD(P)-binding subunit (Dred_1685), His6-tagged, co-expressed with Dred_1686 (Desulfotomaculum reducens MI-1, UniProt A4J559 1-262)
T1 sequence (looked up): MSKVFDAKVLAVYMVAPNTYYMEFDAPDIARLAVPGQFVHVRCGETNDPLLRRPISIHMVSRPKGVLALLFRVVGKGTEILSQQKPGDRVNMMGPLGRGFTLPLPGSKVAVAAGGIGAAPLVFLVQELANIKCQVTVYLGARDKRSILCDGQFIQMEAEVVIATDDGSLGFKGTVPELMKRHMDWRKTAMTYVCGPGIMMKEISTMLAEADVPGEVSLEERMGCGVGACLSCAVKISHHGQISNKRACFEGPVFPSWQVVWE
Experiment: pull-down

stoichiometry N: 1
B1: dihydroorotate dehydrogenase 1B (Dred_1686), untagged, co-expressed with His6-Dred_1685 (enzyme, Desulfotomaculum reducens MI-1, UniProt A4J560 1-304, looked up)
chain: MKLNLAVKIGQLDMINPVTTASGTFGYGQEYSPYVDLNQLGAIVVKGTTLEPREGNPTPRLVETPSGILNSIGLQNSGVDYLLEHYVPFFKKLQTNVIVNISGNTAEEYGQLAARLDEADGIAALEVNISCPNVKKGGMAFGGDFRTAAEVTKVVKNSTALPVIVKLSPNVTDIAEIARAVEGAGADGLSVINTLLGMAIDVRKRKPVLGNTMGGLSGPAVKPVALRAVWQVYKAVHIPIIGMGGIMNATDALEFILAGAQAVSVGTANFVNPYATKEIIQGMEKYLMENGIGDINELVGAAHL
